These results are taken from US9084745B2, “Modulation of the Vps10p-domain for the treatment of cardiovascular disease” (H. Lundback A/S, priority 2008, dated 2015).

In this test the target is T1, recombinant human sortilin (Homo sapiens, UniProt Q99523).
T1 sequence (Q99523 78-755 limits assumed): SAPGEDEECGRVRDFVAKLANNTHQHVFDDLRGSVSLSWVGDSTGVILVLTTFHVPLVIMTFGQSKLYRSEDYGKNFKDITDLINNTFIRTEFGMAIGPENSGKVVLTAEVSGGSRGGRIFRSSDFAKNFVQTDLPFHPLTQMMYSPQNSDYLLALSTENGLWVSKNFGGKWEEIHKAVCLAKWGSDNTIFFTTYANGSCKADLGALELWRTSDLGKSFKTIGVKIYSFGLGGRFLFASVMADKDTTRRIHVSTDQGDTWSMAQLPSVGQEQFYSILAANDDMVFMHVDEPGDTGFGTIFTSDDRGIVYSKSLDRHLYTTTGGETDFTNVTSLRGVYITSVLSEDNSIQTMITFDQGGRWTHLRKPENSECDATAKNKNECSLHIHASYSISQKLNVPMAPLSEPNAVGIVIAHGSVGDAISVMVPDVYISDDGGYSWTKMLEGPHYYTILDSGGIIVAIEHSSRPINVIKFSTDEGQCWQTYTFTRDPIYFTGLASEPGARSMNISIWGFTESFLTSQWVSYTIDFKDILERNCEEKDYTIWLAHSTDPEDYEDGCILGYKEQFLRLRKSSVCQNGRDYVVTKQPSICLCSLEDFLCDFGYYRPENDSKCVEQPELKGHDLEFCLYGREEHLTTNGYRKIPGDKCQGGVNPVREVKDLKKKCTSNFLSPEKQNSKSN
Briefly: Surface plasmon resonance analysis of ApoB binding to immobilized sortilin. The settings on record: ApoB 10, 20, 50 nM, on and off rates recorded, displayed experiment. The protocol: FIG. 5b: Characterization of ApoB binding to recombinant human sortilin (30). Sortilin was immobilized on a BIAcore CM5 sensorchip at a density of […]. A) After baseline calibration in running buffer (10 mM Hepes, 150 mM NaCl, 1 mM EGTA, 1.5 mM CaCl2, 0.005% P20, pH 7.4) 10 μg/ml rabbit anti-sortilin IgG (12) or running buffer alone was applied to the chip. At t=700 sec the response units obtained in the presence of anti-sortilin IgG was arbitrarily set at 100 and 50 nM ApoB was applied to the flow cell pre-incubated with antibody or with buffer alone. Association of ApoB binding was measured until 1200 sec, after which the solute was changed to buffer to allow dissociation. […]
Determination of direct binding of ligand to immobilized protein can be performed by e.g. surface plasmon resonance analysis (Biacore, Sweden) using CaHBS as standard running buffer (10 mM HEPES, pH 7.4, 140 mM NaCl, 2 mM CaCl2, 1 mM EGTA, and 0.005% Tween-20). […] In another approach, inhibition of an established ligand can be monitored in the absence or presence of putative inhibitors. […] The data collected are analysed by fitting of sensorgrams for affinity estimations and inhibitory potential using the Biaevaluation version 3.1 program. We evaluated the binding properties of ApoB to sortilin (FIG. 5b). […]
In general terms: Surface plasmon resonance follows binding to a sensor surface in real time, without labels.

The Kd is the free concentration of one partner at which half of the binding sites on the other are occupied at equilibrium, for simple one-to-one binding. For “ApoB: apolipoprotein B, the part of LDL that binds to the LDL receptor; tested as sortilin ligand”, the Kd was 0.4 nM.
